# Measurements as given in the DeepSol protein solubility set.
# Experiment: soluble on expression in E. coli; label from the status in PepcDB or PDB records
row,Sequence,soluble on expression in E. coli
1,MASMQKLINSVQNYAWGSKTALTELYGIANPQQQPMAELWMGAHPKSSSRITTANGETVSLRDAIEKNKTAMLGEAVANRFGELPFLFKVLCAAQPLSIQVHPNKRNSEIGFAKENAAGIPMDAAERNYKDPNHKPELVFALTPFLAMNAFREFSDIVSLLQPVAGAHSAIAHFLQVPNAERLSQLFASLLNMQGEEKSRALAVLKAALNSQQGEPWQTIRVISEYYPDDSGLFSPLLLNVVKLNPGEAMFLFAETPHAYLQGVALEVMANSDNVLRAGLTPKYIDIPELVANVKFEPKPAGELLTAPVKSGAELDFPIPVDDFAFSLHDLALQETSIGQHSAAILFCVEGEAVLRKDEQRLVLKPGESAFIGADESPVNASGTGRLARVYNKL,soluble
2,MASMTGGNNMGRGSMGAMDQEIGTVTDTKMDPRDFLQLLKINAEKAEKNLPLDQKRAGMEALCERFPRAEGVELTLTDLGGVPCIRQATDGAGAAHILYFHGGGYISGSPSTHLVLTTQLAKQSSATLWSLDYRLAPENPFPAAVDDCVAAYRALLKTAGSADRIIIAGDSAGGGLTTASMLKAKEDGLPMPAGLVMLSPFVDLTLSRWSNSNLADRDFLAEPDTLGEMSELYVGGEDRKNPLISPVYADLSGLPEMLIHVGSEEALLSDSTTLAERAGAAGVSVELKIWPDMPHVFQMYGKFVNAADISIKEICHWISARISKLAAALEHHHHHH,soluble
3,MASQVSQMPSSSPLSSNKDEMRPKADFQPSIWGDLFLNCPDKNIDAETEKRHQQLKEEVRKMIVAPMANSTQKLAFIDSVQRLGVSYHFTKEIEDELENIYHNNNDAENDLYTTSIRFRLLREHGYNVSCDVFNKFKDEQGNFKSSVTSDVRGLLELYQASYLRVHGEDILDEAISFTTHHLSLAVASLDHPLSEEVSHALKQSIRRGLPRVEARHYLSVYQDIESHNKALLEFAKIDFNMLQFLHRKELSEICRWWKDLDFQRKLPYARDRVVEGYFWISGVYFEPQYSLGRKMLTKVIAMASIVDDTYDSYATYEELIPYTNAIERWDIKCIDEIPEYMKPSYKALLDVYEEMVQLVAEHGRQYRVEYAKNAMIRLAQSYLVEAKWTLQNYKPSFEEFKANALPTCGYAMLAITSFVGMGDIVTPETFKWAASDPKIIQASTIICRFMDDVAEHKFKHRREDDCSAIECYMEEYGVTAQEAYDVFNKHVESAWKDLNQEFLKPTEMPTEVLNRSLNLARVMDVLYREGDGYTYVGKAAKGGITSLLIEPIAL,soluble
4,MASRAPKEVPLCPLMTDGETRNVTDLPGPTNWPLLGSLLEIFWKGGLKKQHDTLAEYHKKYGQIFRMKLGSFDSVHLGSPSLLEALYRTESAHPQRLEIKPWKAYRDHRNEAYGLMILEGQEWQRVRSAFQKKLMKPVEIMKLDKKINEVLADFLERMDELCDERGRIPDLYSELNKWSFESICLVLYEKRFGLLQKETEEEALTFITAIKTMMSTFGKMMVTPVELHKRLNTKVWQAHTLAWDTIFKSVKPCIDNRLQRYSQQPGADFLCDIYQQDHLSKKELYAAVTELQLAAVETTANSLMWILYNLSRNPQAQRRLLQEVQSVLPDNQTPRAEDLRNMPYLKACLKESMRLTPSVPFTTRTLDKPTVLGEYALPKGTVLTLNTQVLGSSEDNFEDSHKFRPERWLQKEKKINPFAHLPFGIGKRMCIGRRLAELQLHLALCWIIQKYDIVATDNEPVEMLHLGILVPSRELPIAFRPR,soluble
5,MASSINGRKPSEIFKAQALLYKHIYAFIDSMSLKWAVEMNIPNIIQNHGKPISLSNLVSILQVPSSKIGNVRRLMRYLAHNGFFEIITKEEESYALTVASELLVRGSDLCLAPMVECVLDPTLSGSYHELKKWIYEEDLTLFGVTLGSGFWDFLDKNPEYNTSFNDAMASDSKLINLALRDCDFVFDGLESIVDVGGGTGTTAKIICETFPKLKCIVFDRPQVVENLSGSNNLTYVGGDMFTSIPNADAVLLKYILHNWTDKDCLRILKKCKEAVTNDGKRGKVTIIDMVIDKKKDENQVTQIKLLMDVNMACLNGKERNEEEWKKLFIEAGFQHYKISPLTGFLSLIEIYP,soluble
6,MASSINNRKPSEIFKAQALLYKNMYAFVDSMSLKWSIEMNIPNIIHNHGKPITLSNLVSILQIPSTKVDNVQRLMRYLAHNGFFEIITNQELENEEEAYALTVASELLVKGTELCLAPMVECVLDPTLSTSFHNLKKWVYEEDLTLFAVNLGCDLWEFLNKNPEYNTLYNDALASDSKMINLAMKDCNLVFEGLESIVDVGGGNGTTGKIICETFPKLTCVVFDRPKVVENLCGSNNLTYVGGDMFISVPKADAVLLKAVLHDWTDKDCIKILKKCKEAVTSDGKRGKVIVIDMVINEKKDENQLTQIKLLMNVTISCVNGKERNEEEWKKLFIEAGFQDYKISPFTGLMSLIEIYP,soluble
7,MASSNLIKQLQERGLVAQVTDEEALAERLAQGPIALYCGFDPTADSLHLGHLVPLLCLKRFQQAGHKPVALVGGATGLIGDPSFKAAERKLNTEETVQEWVDKIRKQVAPFLDFDCGENSAIAANNYDWFGNMNVLTFLRDIGKHFSVNQMINKEAVKQRLNREDQGISFTEFSYNLLQGYDFACLNKQYGVVLQIGGSDQWGNITSGIDLTRRLHQNQVFGLTVPLITKADGTKFGKTEGGAVWLDPKKTSPYKFYQFWINTADADVYRFLKFFTFMSIEEINALEEEDKNSGKAPRAQYVLAEQVTRLVHGEEGLQAAKRITECLFSGSLSALSEADFEQLAQDGVPMVEMEKGADLMQALVDSELQPSRGQARKTIASNAITINGEKQSDPEYFFKEEDRLFGRFTLLRRGKKNYCLICWK,soluble
8,MASSSLVRIAVVGDIHGFWNLDEDRKALRVLQERKTKTKRCSNATRYMDFPSFKLSIVGGRPFSHGGDRLFRKNLLVQRYGVHDMEASAGSICRAAHGTPEDHVAIILAHNGPTGLGWQAEDICGKDWGAEGGDHGDPDLEQAIRQLKETTKLSIPLVVFGHMHKELQRGKGNRKMVVQDSDNQTVYVNGAIVPRVKEAKKRGAAESESGGTTRAFTLVEILDGKIKKIAEIWVHVNGSMAKIVEENTLFEDVT,soluble
9,MASSVDEEALHQLYLWVDNIPLSRPKRNLSRDFSDGVLVAEVIKFYFPKMVEMHNYVPANSLQQKLSNWGHLNRKVLKRLNFSVPDDVMRKIAQCAPGVVELVLIPLRQRLEERQRRRKQGAGSLQELAPQDGSGYMDVGKVAFSISPSRLELSFCPSSCHL,not soluble
10,MASTPCAACKLLRRKCTQECVFAPYFPPTNPQKFIFVHRVFGASNVTKILNDLPPDQREDTVNSLFYEAEARIRDPIYGCVGLISFLQQYLKKIQQDLLTAKEELVGYLGPDAVIPPPYLPPIGNNPPPNFMMSMEGMPPGVIPQGEPLMIREPNMSQQHHHQQPQDEQLQFIASDAQRMAAMMLERGDQQGMFNGYGIDNNGSVTATGFNQMDVNDQGAGGSLSGPSLALGSFGDAYQMGQETEHGHINHDQLQTQLMLQPPLQEGQEQTEEGQFLMQPMGQENLHDEEEEEELEPPVKWRMSENKEASF,not soluble
11,MASVPVYCLCRLPYDVTRFMIECDMCQDWFHGSCVGVEEEKAADIDLYHCPNCEVLHGPSIMKKRRGSSKGHDTHKGKPVKTGSPTFVRELRSRTFDSSDEVILKPTGNQLTVEFLEENSFSVPILVLKKDGLGMTLPSPSFTVRDVEHYVGSDKEIDVIDVTRQADCKMKLGDFVKYYYSGKREKVLNVISLEFSDTRLSNLVETPKIVRKLSWVENLWPEECVFERPNVQKYCLMSVRDSYTDFHIDFGGTSVWYHVLKGEKIFYLIRPTNANLTLFECWSSSSNQNEMFFGDQVDKCYKCSVKQGQTLFIPTGWIHAVLTPVDCLAFGGNFLHSLNIEMQLKAYEIEKRLSTADLFRFPNFETICWYVGKHILDIFRGLRENRRHPASYLVHGGKALNLAFRAWTRKEALPDHEDEIPETVRTVQLIKDLAREIRLVEDIFQQN,soluble
12,MASYTSEQAEALLKLQFDKYAKFIDDEVWAEVEGYYHPSGVLVHKGKEAVYGNKDKSTYIAKFAEGTGKSVGTTTNAKYEGSGDYLIITADFSSETEKAGTVKGRFVQI,not soluble
13,MATAKKITIHDVALAAGVSVSTVSLVLSGKGRISTATGERVNAAIEELGFVRNRQASALRGGQSGVIGLIVRDLSAPFYAELTAGLTEALEAQGRMVFLLHGGKDGEQLAQRFSLLLNQGVDGVVIAGAAGSSDDLRRMAEEKAIPVIFASRASYLDDVDTVRPDNMQAAQLLTEHLIRNGHQRIAWLGGQSSSLTRAERVGGYCATLLKFGLPFHSDWVLECTSSQKQAAEAITALLRHNPTISAVVCYNETIAMGAWFGLLKAGRQSGESGVDRYFEQQVSLAAFTDATPTTLDDIPVTWASTPARELGITLADRMMQKITHEETHSRNLIIPARLIAAK,not soluble
14,MATAVKLSGISKTFGSLKANDNVSLSIEAGSIHALVGENGAGKSTLSNIIYGLLHPDSGTIEIDGKAVKFSSVRQAIEAGIGMVHQHFMLVPTLSVTENIILGKEESRLALPTRRIGKEIRQLSQQHGLEVDPDALVSTLSVGEQQRVEILKLLYRRAKLLILDEPTAVLSPPETARLFATLRSLAAEGRTVLLITHKLDEVLTVSDSVSVMRKGSLVGTVPTTSTSKEDLARMMVGRDVLLRTANAPQTPGKTVLSIDKLTYRSPLGIDKLTGLTLHVRAGEIYGIAGVEGNGQSELLSLLWGTFDRSGKTGGSITIDAQETLGKNPSEIAALGVSMIPEDRHKSAIIAEYGIEENLILGRHREKAFHRGIGFDRDAVHKNATAMIEQYDIRCAAGTNPPIASLSGGNQQKIVVAREMERPQLKLLVLAQPTRGVDIGAIEQIHKRIIDARKSGLAILLISSELEEIVALSTRIGCLYKGAIRHEFSETEVWRGRDHESGFEKEIGMHITLEHHHHHH,soluble
15,MATEPPKIVWNEGKRRFETEDHEAFIEYKMRNNGKVMDLVHTYVPSFKRGLGLASHLCVAAFEHASSHSISIIPSCSYVSDTFLPRNPSWKPLIHSEVFKSSI,soluble
16,MATGVIRGAELSPSYIIEEILGLYQNIVVLSNEEIVYGLSDRNRELFQELEYLVSLEVEDSVVQDILQKKELEPAFTEIKRFRNLYTVRLETEHAKEILSSDSPWASLEMFSFYGNYLKLVRTEYEGLRLSSGDTVFFLGSGPLPLTLIVFFRLYGVKSTGIEKDSFRANLSKKVLEKLGLSSVIKIVNGNHFSLSRKDLSLSPDTGVKALMIAAQAEPKKEIFEHLLEVMPIGGRISCRIYEKGLRKLLSGNCLFDLPEGFVEQERVQPQPPVYNTVIFFEKKRLEHHHHHH,not soluble
17,MATLTAKNLAKAYKGRRVVEDVSLTVNSGEIVGLLGPNGAGKTTTFYMVVGIVPRDAGNIIIDDDDISLLPLHARARRGIGYLPQEASIFRRLSVYDNLMAVLQIRDDLSAEQREDRANELMEEFHIEHLRDSMGQSLSGGERRRVEIARALAANPKFILLDEPFAGVDPISVIDIKRIIEHLRDSGLGVLITDHNVRETLAVCERAYIVSQGHLIAHGTPTEILQDEHVKRVYLGEDFRL,soluble
18,MATRADEDGDTPLHIAVVQGNLPAVHRLVNLFQQGGRELDIYNNLRQTPLHLAVITTLPSVVRLLVTAGASPMALDRHGQTAAHLACEHRSPTCLRALLDSAAPGTLDLEARNYDGLTALHVAVNTECQETVQLLLERGADIDAVDIKSGRSPLIHAVENNSLSMVQLLLQHGANVNAQMYSGSSALHSASGRGLLPLVRTLVRSGADSSLKNCHNDTPLMVARSRRVIDILRGKATRPAS,soluble
19,MATRRRIGVAAIQKKQETANKFAAKGDQMAGEQLVQFSQQLEQLSAGLEMFAQRHRDEIKKNSQFRRHFQEMCASVGVDPLASSKGFWAKALGFGDFYYELGIQIVEICLSTTHINGGIMTVEEIRNRLMRTRSRTRKDTISTDDILRAVDKLKVLGNGFELVPLGGGRFLVQSVPGELSMDHSRVLQLAEDAAYVTKELIIDKLRWDEARASSALEHLVKEGLAWTDEQASDTTQYWFPSLFLQQYCHSSSSTSVSESLHSMSFNNYQ,not soluble
